Article PMC2990977

Biological target: 80S ribosome from Thermomyces lanuginosus (Thermomyces lanuginosus)
Experiment: co-sedimentation

occupancy relative to Sordarin-trapped eEF2: 60 to 70% | percent eEF2 bound (GDP only): 16%
Substance: eukaryotic elongation factor 2 (eEF2) from Thermomyces lanuginosus (natural protein)
